Values of other authors, collected in patent US7338947B2, “Cyclic derivatives as modulators of chemokine receptor activity” (Bristol-Myers Squibb Co., priority 2003, dated 2008).

Test system: MCP-1 expression in peripheral blood mononuclear cells
Conditions: human multiple sclerosis, effective therapy

B1: interferon b-1b: interferon b-1b, effective therapy in human multiple sclerosis (protein, UniProt P01574 22-187, looked up, variant C17S)
Interferon beta: MSYNLLGFLQRSSNFQSQKLLWQLNGRLEYCLKDRMNFDIPEEIKQLQQFQKEDAALTIYEMLQNIFAIFRQDSSSTGWNETIVENLLANVYHQINHLKTVLEEKLEKEDFTRGKLMSSLHLKRYYGRILHYLKAKEYSHCAWTIVRVEILRNFYFINRLTGYLRN
modifications: interferon beta-1b
MCP-1 expression in peripheral blood mononuclear cells: reduces MCP-1 expression
